{
  "source": "patent US20150359911",
  "about": "“Aptamer Specific to Integrin alpha-v-beta-3 and Use Thereof” (POSTECH ACADEMY-INDUSTRY FOUNDATION, published 2015)",
  "conditions_in_all_cases": "tags: R&D Systems 3050-AV",
  "key": {"[1]": {"biological_target": "T1, Integrin alpha-v beta-3 (UniProt P06756;P05106 P06756:31-992,P05106:27-718)", "T1 sequence (P06756 31-992, chain 1 of 2)": "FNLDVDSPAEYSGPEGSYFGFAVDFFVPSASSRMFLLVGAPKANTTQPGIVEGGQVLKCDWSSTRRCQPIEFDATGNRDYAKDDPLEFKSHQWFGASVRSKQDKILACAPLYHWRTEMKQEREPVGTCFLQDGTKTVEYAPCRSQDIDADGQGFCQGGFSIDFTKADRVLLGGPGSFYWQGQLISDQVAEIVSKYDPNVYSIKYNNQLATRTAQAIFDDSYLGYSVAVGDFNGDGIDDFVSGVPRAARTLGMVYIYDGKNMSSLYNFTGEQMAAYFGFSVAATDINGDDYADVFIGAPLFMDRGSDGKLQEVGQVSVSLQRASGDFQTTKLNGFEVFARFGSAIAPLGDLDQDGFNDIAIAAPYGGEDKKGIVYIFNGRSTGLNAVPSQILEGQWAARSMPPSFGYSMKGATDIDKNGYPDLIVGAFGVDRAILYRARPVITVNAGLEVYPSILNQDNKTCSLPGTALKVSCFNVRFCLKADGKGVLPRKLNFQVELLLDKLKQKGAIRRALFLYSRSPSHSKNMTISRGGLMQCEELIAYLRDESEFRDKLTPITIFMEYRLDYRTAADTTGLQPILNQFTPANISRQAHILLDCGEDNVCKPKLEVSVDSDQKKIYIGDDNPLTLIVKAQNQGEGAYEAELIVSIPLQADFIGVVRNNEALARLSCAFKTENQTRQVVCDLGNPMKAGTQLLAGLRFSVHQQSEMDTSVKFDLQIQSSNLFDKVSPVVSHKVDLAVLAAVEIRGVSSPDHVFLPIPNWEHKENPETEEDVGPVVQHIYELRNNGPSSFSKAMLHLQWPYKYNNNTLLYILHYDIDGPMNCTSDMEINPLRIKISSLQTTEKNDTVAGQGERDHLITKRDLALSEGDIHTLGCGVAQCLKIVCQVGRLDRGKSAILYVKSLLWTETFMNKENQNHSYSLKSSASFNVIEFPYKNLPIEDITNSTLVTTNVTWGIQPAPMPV", "T1 sequence (P05106 27-718, chain 2 of 2)": "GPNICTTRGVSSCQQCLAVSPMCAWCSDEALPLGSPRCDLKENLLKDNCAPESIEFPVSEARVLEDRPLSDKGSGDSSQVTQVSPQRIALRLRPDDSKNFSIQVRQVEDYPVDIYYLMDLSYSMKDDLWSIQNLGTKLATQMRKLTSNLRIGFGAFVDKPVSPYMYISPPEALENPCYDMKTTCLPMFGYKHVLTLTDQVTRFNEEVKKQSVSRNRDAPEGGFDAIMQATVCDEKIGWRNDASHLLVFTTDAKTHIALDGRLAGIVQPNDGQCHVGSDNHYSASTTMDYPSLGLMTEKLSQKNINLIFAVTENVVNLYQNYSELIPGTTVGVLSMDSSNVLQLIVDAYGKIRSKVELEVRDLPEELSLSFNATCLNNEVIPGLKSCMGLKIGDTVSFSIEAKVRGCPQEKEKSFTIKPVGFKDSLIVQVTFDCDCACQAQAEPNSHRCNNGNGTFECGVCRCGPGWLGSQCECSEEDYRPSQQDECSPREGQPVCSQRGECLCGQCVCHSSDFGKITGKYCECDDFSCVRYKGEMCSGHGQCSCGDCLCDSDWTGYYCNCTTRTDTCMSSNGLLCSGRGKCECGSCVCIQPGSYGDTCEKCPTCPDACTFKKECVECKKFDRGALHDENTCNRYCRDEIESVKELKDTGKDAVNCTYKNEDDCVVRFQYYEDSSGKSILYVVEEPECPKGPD", "test": "filter; Bmax 0.82; HEPES, NaCl, KCl, MgCl2 buffer, 37 C", "experimental": "(§1) 20,000 cpm of the labeled DNA pool were put in 100 μL 1×SB buffer (200 mM HEPES, 510 mM NaCl, 25 mM KCl, 25 mM MgCl₂), and slowly cooled from 95° C. to 37° C. at a rate of 0.1° C./sec. And, integrin αᵥβ₃ (R&D systems, 3050-AV) was serially diluted to 12 points at 100 nM using buffer (200 mM HEPES, 510 mM NaCl, 25 mM KCl, 25 mM MgCl₂), and then, 30 μL of the above heated and cooled DNA pool was respectively added and reacted at 37° C. for 30 minutes. A nylon membrane (GE healthcare) was spotted with 2 μL of the complex of DNA and integrin αᵥβ₃, and then, 5.5 μL of zorbax resin (Agilent) was added thereto. And, it was put in a Durapore filter (Millipore) previously wetted with 50 μL of 1×SB buffer (200 mM HEPES, 510 mM NaCl, 25 mM KCl, 25 mM MgCl₂) and vacuum was applied. And, the membrane filter was washed with 100 μL of 1× selection buffer (200 mM HEPES, 510 mM NaCl, 25 mM KCl, 25 mM MgCl₂). The filter plate was exposed to an image plate overnight, and then, images were quantified with FLA-5100 (Fuji).\n(§2) In order to examine binding affinity of clone having repeatedly observed base sequence, filter binding assay was conducted by the same method as pool binding assay. The binding affinity was calculated using SigmaPlot 11 (Systat Software Inc.) from the value obtained through the filter binding assay, and the results are shown in the following Table 4. […]"}, "[2]": {"biological_target": "T1, Integrin alpha-v beta-3", "test": "filter; Bmax 0.88; HEPES, NaCl, KCl, MgCl2 buffer, 37 C", "experimental": "as §1, §2"}, "[3]": {"biological_target": "T1, Integrin alpha-v beta-3", "test": "filter; Bmax 0.69; HEPES, NaCl, KCl, MgCl2 buffer, 37 C", "experimental": "as §1, §2"}, "[4]": {"biological_target": "T1, Integrin alpha-v beta-3", "test": "filter; Bmax 0.56; HEPES, NaCl, KCl, MgCl2 buffer, 37 C", "experimental": "as §1, §2"}},
  "data": [
    {"binder": "Clone #25 (S003-A4-025-T7_A04), full length (ssDNA, n in core = 5-(N-benzylaminocarbonyl)-2'-deoxyuridine (BzdU) [n positions 20,21,22,23,30,31,41,42,46,47,49,50,51,54 = modified dU]) DNA: TCAGCCGCCAGCCAGTTCGTTTTAAGAAATTAGCACACCGTTGACTTGTTTAGTGGCGGACCAGAGCACCACAGAG", "values": [
      {"measurement": "Kd", "setting": "[1]", "value": 0.0176, "unit": "µM"}
    ]},
    {"binder": "Clone #21 (S003-A4-021-T7_E03), full length (ssDNA, n in core = 5-(N-benzylaminocarbonyl)-2'-deoxyuridine (BzdU) [n positions 27,28,30,36,37,39,41,42,44,45,46,51,58 = modified dU]) DNA: TCAGCCGCCAGCCAGTTCCGAGGGAGTTATGGAGATTGTGTTGTTTAAGGTCGGAACTGACCAGAGCACCACAGAG", "values": [
      {"measurement": "Kd", "setting": "[2]", "value": 0.059, "unit": "µM"}
    ]},
    {"binder": "Clone #12 (S003-A4-012-T7_D02), full length (ssDNA, n in core = 5-(N-benzylaminocarbonyl)-2'-deoxyuridine (BzdU) [n positions 21,22,28,29,30,37,42,46,47,48,49,56 = modified dU]) DNA: TCAGCCGCCAGCCAGTTCAGTTGCCAATTTGCAGCCTAGGATACGTTTTCGAAACTGCAGACCAGAGCACCACAGAG", "values": [
      {"measurement": "Kd", "setting": "[3]", "value": 0.0232, "unit": "µM"}
    ]},
    {"binder": "Clone #11 (S003-A4-011-T7_C02), full length (ssDNA, n in core = 5-(N-benzylaminocarbonyl)-2'-deoxyuridine (BzdU) [n positions 19,20,21,22,25,27,28,30,32,34,39,43,46,51,53,55 = modified dU]) DNA: TCAGCCGCCAGCCAGTTCTTTTAATCTTCTCTGTCAGATGGCTGGTAGGGTGTATGACGACCAGAGCACCACAGAG", "values": [
      {"measurement": "Kd", "setting": "[4]", "value": 0.038, "unit": "µM"}
    ]}
  ]
}
